According to paper doi:10.1101/2020.04.07.029496 (bioRxiv, 2020):

How the values were obtained:
[1] = target: E. gossypii Tip20 (residues 1-672) (E. gossypii); assay: ITC
[2] = target: T1, S. cerevisiae Tip20_(I481D,L585D) (S. cerevisiae, UniProt P33891 1-701, I481D | L585D); assay: ITC
T1 sequence: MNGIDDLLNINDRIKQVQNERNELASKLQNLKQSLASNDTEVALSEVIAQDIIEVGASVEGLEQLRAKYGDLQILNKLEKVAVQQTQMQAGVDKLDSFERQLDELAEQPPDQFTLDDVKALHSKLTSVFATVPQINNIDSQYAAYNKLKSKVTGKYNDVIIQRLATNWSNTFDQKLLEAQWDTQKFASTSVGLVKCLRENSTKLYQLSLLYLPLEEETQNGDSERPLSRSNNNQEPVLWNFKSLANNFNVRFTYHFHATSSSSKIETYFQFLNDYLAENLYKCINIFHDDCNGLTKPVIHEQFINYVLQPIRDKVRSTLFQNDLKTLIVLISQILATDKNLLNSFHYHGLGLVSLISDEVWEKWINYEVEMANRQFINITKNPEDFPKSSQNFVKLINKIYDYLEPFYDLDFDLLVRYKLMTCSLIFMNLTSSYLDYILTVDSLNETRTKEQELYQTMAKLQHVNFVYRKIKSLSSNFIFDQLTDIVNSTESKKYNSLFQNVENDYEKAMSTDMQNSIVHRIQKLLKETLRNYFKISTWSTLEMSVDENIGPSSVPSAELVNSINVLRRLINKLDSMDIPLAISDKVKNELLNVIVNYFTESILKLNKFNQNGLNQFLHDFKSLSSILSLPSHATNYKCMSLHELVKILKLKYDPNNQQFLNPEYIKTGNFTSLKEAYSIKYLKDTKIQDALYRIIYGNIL

With “E. gossypii MBP-Sec20NTD (domain or fragment)” the Kd [1] was 100 nM.

B1: S. cerevisiae Sec20_(1-174) (domain or fragment, UniProt P28791 1-174, looked up)
chain: MVVTFLQDLEVLQDALLNNLQKLSAISRRKESGESKHDNKDSFAAIANEHNDEEEEIEFEDLVNIIESKVSDFESVLKCSIVEMTYKYPELKLQWEKSPRYDQCDKLHIVKLDKQMNEDIYAQLVEELDFVLQFVDWFYCYRLKVKEILRQHHKRDLAWNDEKRDRAIKFHAVD
In the case of B1, the “fold increase in KD against wild-type Tip20” value [2] is reported as 15 fold.
